Assay results reported in patent WO2020219978A1 (dated 2020).

Legend:
[1] = target: T1, human BCMA (hu-BCMA), as used in SPR (human, UniProt Q02223 1-54); assay: SPR
T1 construct: The construct used in SPR is not described; also called B cell maturation antigen; TNFRSF17
T1 sequence: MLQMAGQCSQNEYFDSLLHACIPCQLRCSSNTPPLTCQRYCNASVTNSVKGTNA

[2] = target: T2, mouse BCMA (mouse, UniProt O88472 1-49, limits assumed); assay: SPR
T2 construct: also called rodent BCMA
T2 chain (looked up): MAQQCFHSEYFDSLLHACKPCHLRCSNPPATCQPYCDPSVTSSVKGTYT

[3] = target: T1, human BCMA (hu-BCMA), as used in SPR; assay: SPR, mean (n = 3 by paragraph 97)
[4] = target: T3, BCMA/Fc (human, UniProt Q02223 1-54); assay: flow cytometry blocking experiment on U266 cells; soluble BCMA/Fc against BCMA on the cells
T3 construct: not shown: Fc part not described
T3 sequence: T1 sequence

[5] = target: T4, CD3 on Jurkat cells (human, UniProt P07766 23-207); assay: flow cytometry on Jurkat cells
T4 construct: also called CD3 on T cell lines
T4 sequence (P07766 23-207 limits assumed): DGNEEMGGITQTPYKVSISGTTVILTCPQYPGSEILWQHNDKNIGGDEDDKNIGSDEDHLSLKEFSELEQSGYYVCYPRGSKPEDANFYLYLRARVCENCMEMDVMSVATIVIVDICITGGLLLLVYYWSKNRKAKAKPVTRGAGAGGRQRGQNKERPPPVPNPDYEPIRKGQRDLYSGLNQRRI

[6] = target: T5, human BCMA on cells (NCI-H929, L363, JJN-3, RPMI-8226, U266 myeloma cell lines; HEK293T-huBCMA) (human, UniProt Q02223 1-184); assay: flow cytometry on NCI-H929 MM cells, 3 lots
T5 construct: also called BCMA on myeloma cell lines
T5 sequence: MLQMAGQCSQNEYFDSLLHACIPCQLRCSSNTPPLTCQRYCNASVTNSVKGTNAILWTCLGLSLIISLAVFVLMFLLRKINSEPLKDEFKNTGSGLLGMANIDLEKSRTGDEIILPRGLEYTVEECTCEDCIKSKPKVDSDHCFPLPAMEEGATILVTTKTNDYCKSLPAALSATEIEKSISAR

[7] = target: T1, human BCMA (hu-BCMA), as used in SPR; assay: not stated (description)
[8] = target: human CD3 epsilon (CD3ɛ), form of the assay not stated (human, UniProt P07766 23-126, limits assumed); assay: not stated (description)
Chain of human CD3 epsilon (CD3ɛ), form of the assay not stated (P07766 23-126 limits assumed): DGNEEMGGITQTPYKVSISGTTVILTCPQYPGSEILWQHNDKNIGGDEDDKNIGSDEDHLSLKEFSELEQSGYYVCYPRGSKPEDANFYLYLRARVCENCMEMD

[9] = target: T6, human cluster of differentiation 3 epsilon/delta heterodimer (CD3ed) (human, UniProt P04234 22-105); assay: SPR (n = 3 by paragraph 97)
T6 construct: also called human CD3ed heterodimer
T6 sequence (chain, as listed by the source mutant, chain 1 of 2): as the sequence (P07766 23-126 limits assumed) above
T6 sequence (P04234 22-105, stated change not applied, chain 2 of 2): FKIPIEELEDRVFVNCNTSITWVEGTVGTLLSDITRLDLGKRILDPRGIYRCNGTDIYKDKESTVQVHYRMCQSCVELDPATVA

[10] = target: T4, CD3 on Jurkat cells; assay: flow cytometry on Jurkat cells, second study

B1: BCMA binder of CC-93269 (anti-BCMA IgG and Fab fragment of clone 83A10-42) (antibody, V domains shown)
VH: EVQLLESGGGLVQPGGSLRLSCAASGFTFSDNAMGWVRQAPGKGLEWVSAISGPGSSTYYADSVKGRFTISRDNSKNTLYLQMNSLRAEDTAVYYCAKVLGWFDYWGQGTLVTVSS
VL: EIVLTQSPGTLSLSPGERATLSCRASQSVSDEYLSWYQQKPGQAPRLLIHSASTRATGIPDRFSGSGSGTDFTLAISRLEPEDFAVYYCQQYGYPPDFTFGQGTKVEIK
Q: What does the source list for B1?
A: Kd [1]: 0.203 to 0.45 nM; binding result [2]: binds; Kd [3]: 0.431 nM

B2: phycoerythrin (PE)-conjugated BCMA binder (Clone 83A10-42) of CC-93269 (antibody, V domains shown)
VH: B1 VH
VL: B1 VL
modifications: phycoerythrin (PE)-conjugated; site not stated
notes: also called PE-conjugated 83A10-42
Q: Does B2 bind [4]?
A: binds

B3: CC-93269, bispecific trivalent anti-BCMA/anti-CD3 T cell engaging antibody (TCE) (bispecific antibody, human IgG1, kappa, L234A L235A)
heavy 1: not shown
heavy 2: EVQLLESGGGLVQPGGSLRLSCAASGFTFSDNAMGWVRQAPGKGLEWVSAISGPGSSTYYADSVKGRFTISRDNSKNTLYLQMNSLRAEDTAVYYCAKVLGWFDYWGQGTLVTVSSASTKGPSVFPLAPSSKSTSGGTAALGCLVEDYFPEPVTVSWNSGALTSGVHTFPAVLQSSGLYSLSSVVTVPSSSLGTQTYICNVNHKPSNTKVDEKVEPKSCDKTHTCPPCPAPEAAGGPSVFLFPPKPKDTLMISRTPEVTCVVVDVSHEDPEVKFNWYVDGVEVHNAKTKPREEQYNSTYRVVSVLTVLHQDWLNGKEYKCKVSNKALGAPIEKTISKAKGQPREPQVCTLPPSRDELTKNQVSLSCAVKGFYPSDIAVEWESNGQPENNYKTTPPVLDSDGSFFLVSKLTVDKSRWQQGNVFSCSVMHEALHNHYTQKSLSLSPGK
light 1: EVQLLESGGGLVQPGGSLRLSCAASGFTFSTYAMNWVRQAPGKGLEWVSRIRSKYNNYATYYADSVKGRFTISRDDSKNTLYLQMNSLRAEDTAVYYCVRHGNFGNSYVSWFAYWGQGTLVTVSSASVAAPSVFIFPPSDEQLKSGTASVVCLLNNFYPREAKVQWKVDNALQSGNSQESVTEQDSKDSTYSLSSTLTLSKADYEKHKVYACEVTHQGLSSPVTKSFNRGEC
light 2: EIVLTQSPGTLSLSPGERATLSCRASQSVSDEYLSWYQQKPGQAPRLLIHSASTRATGIPDRFSGSGSGTDFTLAISRLEPEDFAVYYCQQYGYPPDFTFGQGTKVEIKRTVAAPSVFIFPPSDRKLKSGTASVVCLLNNFYPREAKVQWKVDNALQSGNSQESVTEQDSKDSTYSLSSTLTLSKADYEKHKVYACEVTHQGLSSPVTKSFNRGEC
Q: With B3 as the binder, how does the “fold higher affinity than to rodent BCMA” value [1] read?
A: ~10 fold

Q: And the EC50 [5]?
A: 16.8 to 37.4 nM

Q: What about the EC50 [6] of the same binder?
A: 1.7 to 2.8 nM

Q: What about the Kd [7] of the same binder?
A: ~0.3 nM

Q: What about the Kd [8] of the same binder?
A: 24 to 28 nM

Q: And the Kd [9]?
A: 25 nM

Q: What about the EC50 [10] of the same binder?
A: 121 nM
